Test results as given in the supplement of paper PMC9170038.

System: MS2 coat protein
Test: apparent KD of MS2 coat protein; designed switch direction (-1 OFF switch, 1 ON switch): 1; higher = weaker reporter binding
In short: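 Transcription of designed RNA switches on Illumina chips was done by stalled E. coli RNA polymerase. SNAP-549-labelled MS2 coat protein was then titrated in doubling steps from 0.7 or 1.5 nM to 3 µM, with steps of 0.8–1.5 h at the lowest and 10–20 min at the highest concentration. The per-design median over clusters of curve-fitted normalised fluorescence is reported as apparent KD.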

[1] = input ligand: microRNA oligo, concentration not stated
[2] = Eterna round: R95, input ligand: microRNA oligo, concentration not stated
[3] = Eterna round: R95, input ligand: FMN 200 uM
[4] = Eterna round: R95, input ligand: none

Row | Sequence | apparent KD of MS2 coat protein (input ligand: FMN 200 uM) | apparent KD of MS2 coat protein [1] | apparent KD of MS2 coat protein (input ligand: none) | apparent KD of MS2 coat protein [2] | apparent KD of MS2 coat protein [3] | apparent KD of MS2 coat protein [4]
1 | GCACUGGCGGUAGGAUAUCUAGGAUAUGGGAAAGACUAAGUCUGUAGGUCACCUAACCCAGAAGGAGAGAAGGACACCGAAAGG [pwkr ssNG2 2FMN + F9.20] (Eterna round: R96, puzzle: Same State NG 2) | 0.115 µM | 0.0165 µM | 0.0129 µM |  |  | 
2 | GAGUAGUUGGGAGGAUAUCCAUUGUUAUAGAAUGGAGAAGGUUUUAACAUGAGGAUCACCCAUGUAGGACUAUUCCUGUGUAUC [Parity 72 - Jieux - Same State NG 1] (Eterna round: R96, puzzle: Same State NG 1) | 0.0135 µM | 0.0122 µM | 0.0168 µM |  |  | 
3 | AAAAUGCGGGAAGGAUAUGGGAAAGGAAGUGUACCAGAAGGUCUCGCGGCCAAGGACAUGAGGAUCACCCAUGUGAACGCCCGA [PowerStrip SSNG 1.9] (Eterna round: R96, puzzle: Same State NG 1) | 0.0981 µM | 0.041 µM | 0.0591 µM |  |  | 
4 | GCUGCAAUAAACGCCUACAUGAGGAUCACCCAUGUAUGUAGGCAGGAUAUCGUUUGCAAAGCAAACGAGAAGGGCUGUAGUAGC [Mat - Same State NG 3 - JL Mod - D38] (Eterna round: R96, puzzle: Same State NG 3) | 0.0526 µM | 0.0598 µM | 0.101 µM |  |  | 
5 | GUAACAUGACGAGGAUAUGGUACAUGAGGAUCACCCAUGUAUGUACCACGACGCGUACGUCGAAUCCAGAAGGCGUCGUGAAUG [Mat - Same State NG 2 - JL mod - D21] (Eterna round: R96, puzzle: Same State NG 2) | 0.0265 µM | 0.0685 µM | 0.0701 µM |  |  | 
6 | GUAGCAUACCGAGGAUAUUCAUAUUAAAUUACAUGAGGAUCACCCAUGUAGGCCAAAAGGCCUUGGGAGAAGGCGGAAUGCUAC [Xeonanis - 20 Mod1] (Eterna round: R96, puzzle: Same State NG 2) | 0.0188 µM | 0.0893 µM | 0.102 µM |  |  | 
7 | GAGCUCCAACGCGGAGCUCCACAUGAGGAUCACCCAUGUACACAGGAUAUCACUCCCUUUGGGAGUGAGAAGGGUGGUUCGGAA [Bebeave] (Eterna round: R96, puzzle: Same State NG 3) | 0.0414 µM | 0.0419 µM | 0.0586 µM |  |  | 
8 | ACAUGAGACCAAGGAUAUGUUGUACCUACAUGUGACAUGAGGAUCACCCAUGUGGUAAGUAUGAGGCAGAAGGUGGAGAUAUGU [Equivalence 26 - Jieux - Same State NG 2] (Eterna round: R96, puzzle: Same State NG 2) | 0.0265 µM | 0.0442 µM | 0.0593 µM |  |  | 
9 | UCAGUCAUGUAAGGAUAUGCAGCCGUUUCGGCUGCAGAAGGUACUAUAAUUACAUGAGGAUCACCCAUGUUAUAAAAUUUAUAU [JL SSNG1 1.25] (Eterna round: R96, puzzle: Same State NG 1) |  | 0.0388 µM |  |  |  | 
10 | UUGUUACAUGAGGAUCACCCAUGUUGUUGUAGAUAAGGAUAUAUAGGAACGAGAGAAAUAAUAGAAGGUAUUAGAC [JR_SS1_Sub059] (puzzle: Same State 1) |  |  |  | 0.0286 µM |  | 
11 | UAUCCAUAGAUAGGAUAUCAGUAUACAUGAGGAUCACCCAUGUUCUAUUUGGUUUUAAUUUAUUCUGAGAAGGAUCUUGAUGAA [SameState NG2 #1] (Eterna round: R96, puzzle: Same State NG 2) | 0.0138 µM | 0.0164 µM | 0.0176 µM |  |  | 
12 | GCAGAACAUGAGGAUCACCCAUGUCUCUAAUAUCGAGGAUAUGGGCACGGUAUAUCCGAACCAGAAGGCGAACUGC [SS1 Teenbexe 15] (puzzle: Same State 1) |  |  |  | 0.244 µM |  | 
13 | ACAUGAAAUUCAGGAUAUUUUGUACCUACAUGUGACAUGAGGAUCACCCAUGUGGUAAGUAUGAGAAAGAAGGGAAAGAUAUGU [Equivalence 10 - Jieux - Same State NG 2] (Eterna round: R96, puzzle: Same State NG 2) | 0.0254 µM | 0.0419 µM | 0.0456 µM |  |  | 
14 | GCUACCAAUGAAGCCAACAUGAGGAUCACCCAUGUAUGUUGGUAGGAUAUCGUUUGCAAAGCAAACGAGAAGGGCUAAGGUAGC [Mat - Same State NG 3 - JL Mod - D75] (Eterna round: R96, puzzle: Same State NG 3) | 0.0628 µM | 0.0368 µM | 0.051 µM |  |  | 
15 | GGCGAACAGGCUAACAUGAGGAUCACCCAUGUGGACUUCGUGUAGGAUAUCGGGAAGGAGGAAACCGAGAAGGGCAAAGAAGCC [AK SSNG3-V2-49] (Eterna round: R96, puzzle: Same State NG 3) | 0.195 µM | 0.0882 µM | 0.0937 µM |  |  | 
16 | UGUUGUAUUACAGGAUAUCUAGUAGUUUUAUUUAGAGAAGGGUAUUCACAUGAGGAUCACCCAUGUAUAUACGAGGAAGUUGUG [JMF's solution 36] (Eterna round: R96, puzzle: Same State NG 1) |  | 0.0297 µM |  |  |  | 
17 | AGCGAACAUGAGGAUCACCCAUGUAGACCGCGUGUGAUAACACAGGAUAUCAAAGGAAGAAGGAGUGAGAAGGGUGGGAAGGAG [Default title] (Eterna round: R96, puzzle: Same State NG 3) | 0.0936 µM | 0.0537 µM | 0.0751 µM |  |  | 
18 | GGCGCGGUCUCGCAGGAUAUCCACAAUCCUACAUGAGGAUCACCCAUGUCGCUGCAGGAUAUUAGGGAGAAGGGUGAUGCCGCGG [Bereri] (puzzle: Same State 2) |  |  |  | 0.0304 µM | 0.02 µM | 0.0416 µM
19 | UAGUGCGUUAGAGGAUAUUCUAAAUAAAAUAAUAAGACAUGAGGAUCACCCAUGUAUGUACAUGGGAAGAAGGCUGAUGUGCUA [Omei SS(NG)2 Bv2] (Eterna round: R96, puzzle: Same State NG 2) |  | 0.342 µM |  |  |  | 
20 | CCGGUAUAUGGAGGAUAUGGAGCCUUAUUGGCUCCAGAAGGCUAAUAACAUGAGGAUCACCCAUGUCCGGCGGUCAAUAGACCG [Eli NG1ss - 59] (Eterna round: R96, puzzle: Same State NG 1) | 0.0667 µM | 0.113 µM | 0.336 µM |  |  | 
21 | ACAUGAGAGGGAGGAUAUUUUGUACCUACAUGUGACAUGAGGAUCACCCAUGUGGUAAGUAUGAGAAAGAAGGCCCAGAUAUGU [Equivalence 18 - Jieux - Same State NG 2] (Eterna round: R96, puzzle: Same State NG 2) | 0.0174 µM | 0.0189 µM | 0.0274 µM |  |  | 
22 | GUUAAGAACUAAGGAUAUUGAAUACAUAUGUUUAACAUGAGGAUCACCCAUGUGGGUUGCGGUGUCGAGAAGGUAGAAUAAUAG [Mat - same State NG 2 - JL mod - D98] (Eterna round: R96, puzzle: Same State NG 2) |  | 0.148 µM |  |  |  | 
23 | GAGCGCUGUCGAGAGGAUAUGCGGUGAUGGACAUGAGGAUCACCCAUGUUAGCGAUAGCAUUACGGUAGAAGGCUCUACAGCUGC [Mat - Same State 2 - Mod of UCT - D87] (puzzle: Same State 2) |  |  |  | 0.0223 µM |  | 
24 | UGGCUGGUGCUAGGAUAUACAUGAGGAAUCCUCGUAGAAGGAUCACGACAUGAGGAUCACCCAUGUAGCCGUCCGUAGACGGCU [salish99_SSNG1_r04_006] (Eterna round: R96, puzzle: Same State NG 1) | 1.93 µM | 0.19 µM | 0.312 µM |  |  | 
25 | AUAGUUGCCGAAGGAUAUGAUGAGGAUCACCCAUCAGAAGGUUGGCUAUUGGGUGGACAUGAGGAUCACCCAUGUUCUUUGGUA (Eterna round: R96, puzzle: Same State NG 1) | 0.0642 µM | 0.107 µM | 0.14 µM |  |  | 
26 | AAGUGGUCCCAAGGAUAUGUCCAAAAGAAGGGCUGAGACAUGAGGAUCACCCAUGUCUCGGCGGUACAGAAGGUGGAGACAGGU [Solaena] (Eterna round: R96, puzzle: Same State NG 2) | 0.0105 µM | 0.01 µM | 0.014 µM |  |  | 
27 | GAGAGAUGGCGAGGAUAUUCGGUGAUAAUGAUGGAAGAAGGCGCUGACAUGAGGAUCACCCAUGUGGGAAUAAUCCAGAGAGAG [Parity 16 - Jieux - Same State NG 1] (Eterna round: R96, puzzle: Same State NG 1) | 0.306 µM | 0.154 µM | 0.257 µM |  |  | 
28 | GGCAGGUGCAGGCUUGCUUGCACCUGGAAACAUGAGGAUCACCCAUGUUUGGGACAAGCUUUGCUCUUCGUUUUGUC [JL ViennaUCT Isusreraar mod 4] (puzzle: Sensor for hsa-mir-208a) |  |  |  | 0.0404 µM | 0.0353 µM | 0.047 µM
